B1: STAT5A (S5; hyperactive variant cS5): T92A (protein)
parent chain: MAGWIQAQQLQGDALRQMQVLYGQHFPIEVRHYLAQWIESQPWDAIDLDNPQDRGQATQLLEGLVQELQKKAEHQVGEDGFLLKIKLGHYATQLQNTYDRCPMELVRCIRHILYNEQRLVREANNCSSPAGVLVDAMSQKHLQINQRFEELRLITQDTENELKKLQQTQEYFIIQYQESLRIQAQFAQLGQLNPQERMSRETALQQKQVSLETWLQREAQTLQQYRVELAEKHQKTLQLLRKQQTIILDDELIQWKRRQQLAGNGGPPEGSLDVLQSWCEKLAEIIWQNRQQIRRAEHLCQQLPIPGPVEEMLAEVNATITDIISALVTSTFIIEKQPPQVLKTQTKFAATVRLLVGGKLNVHMNPPQVKATIISEQQAKSLLKNENTRNECSGEILNNCCVMEYHQATGTLSAHFRNMSLKRIKRADRRGAESVTEEKFTVLFESQFSVGSNELVFQVKTLSLPVVVIVHGSQDHNATATVLWDNAFAEPGRVPFAVPDKVLWPQLCEALNMKFKAEVQSNRGLTKENLVFLAQKLFNISSNHLEDYNSMSVSWSQFNRENLPGWNYTFWQWFDGVMEVLKKHHKPHWNDGAILGFVNKQQAHDLLINKPDGTFLLRFSDSEIGGITIAWKFDSPDRNLWNLKPFTTRDFSIRSLADRLGDLNYLIYVFPDRPKDEVFAKYYTPVLAKAVDGYVKPQIKQVVPEFVNASTDAGASATYMDQAPSPVVCPQPHYNMYPPNPDPVLDQDGEFDLDESMDVARHVEELLRRPMDSLDARLSPPAGLFTSARSSLS
B2: STAT5A (S5; hyperactive variant cS5): S5-T92A (protein)
parent chain: B1 parent chain
B3: STAT5A (S5; hyperactive variant cS5): cS5-T92A (protein)
parent chain: B1 parent chain

Columns and labels:
[1] = oligomer EMSA, 293T, loading adapted to STAT5 activity; conditions: glycan lost; control: constructs without T92A
[2] = immunoblot, 293T with EpoR, EPO stimulation; conditions: glycan lost; control: matching construct without T92A (S5, cS5)
[3] = total STAT5 immunoblot, Ba/F3; conditions: glycan lost; control: cS5
[4] = phospho-serine immunoblot, Ba/F3; conditions: glycan lost; control: cS5
[5] = pYSTAT5 immunoblot, Ba/F3 cells ± IL-3; conditions: glycan lost; control: cS5
[6] = pYSTAT5 immunoblot time course after IL-3 withdrawal, Ba/F3; conditions: glycan lost; control: cS5

| Protein | oligomerisation [1] | other: tyrosine phosphorylation (pYSTAT5) [2] | expression_or_secretion [3] | other: serine 725/779 phosphorylation [4] | other: tyrosine phosphorylation (pYSTAT5) [5] | other: persistence of tyrosine phosphorylation [6] |
| --- | --- | --- | --- | --- | --- | --- |
| B1 | no change |  |  |  |  |  |
| B2 |  | no change |  |  |  |  |
| B3 |  | no change | no change | no change | decreases | decreases |

From paper PMC5629373
